Results from patent publication US20210198349A1 (NEW YORK UNIVERSITY, published 2021).
Changes are numbered by the printed parent chain.

T1: Tau 407-423 peptide (non-truncated Asp421 epitope)
T1 construct: Immobilized in the ELISA, analyte in the Biacore analysis
T1 peptide: HLSNVSSTGSIDMVDSP

T2: Tau 407-421 peptide (Truncated Asp421 Epitope of Tau)
T2 construct: Immobilized in the ELISA, analyte in the Biacore analysis
T2 peptide: HLSNVSSTGSIDMVD

B1: Antibody 5G2A3 (antibody, V domains shown)
VH: EVKLVESGGGLVKPGGSLTLSCAASGFTFSSYAMSWVRQTPEKSLEWVASISSGGNTFYPDTVKGRFTISRDNARNILYLQMSGLRSEDTAIYYCARRGDPNMITTLFGYWGQGTLVTISA
VL: DVLMTQTPLSLPVSLGDQASISCRSSQSILHRNGNTYLDWFLLKPGQSPKLLIYKVSNRFSGVPDRFSGSGSGTDFTLKISRVEAEDLGVYYCFQGSHVPWTFGGGTKLEIK
notes: Hybridoma-derived monoclonal antibody; also called 5G2A3/5G2G6
B2: Antibody 1G10D2 (antibody, V domains shown)
VH: EVKLVESGGDLVTPGGSLKVSCAASGLTFSDSAMSWVRLTPEKRLEWVASISTGGATYYPDGLKGRFTISRDDARNILFLQMNSLRSEDTAMYYCTRRGVSSGNLFTYWGQGTLVTVSA
VL: B1 VL with H31N, R32S, D39E, F41Y, L43Q
B3: Antibody 1G11A10 (antibody, V domains shown)
VH: EVKLVESGGGLMKPGGSLKLSCAASGFTFSSYAMSWVRQSPEKRLEWVASISSGGQTYSPDSVKGRFTISRDNARNILYLQMRNLRSEDTAMYYCASRGDPTMTATLFVYWGQGTLVTVS
VL: B1 VL with L30I, H31N, R32S, D39E, F41Y, L43Q, A85T, V90I
notes: Hybridoma-derived monoclonal antibody
B4: Antibody 5B3C11 (antibody, V domains shown)
VH: EVQLVESGGGLVKPGGSLKLSCAASGFTFSNYALSWVRQTPEKRLEWVASISSGGNTYYPDSVKGRFTISRDNARNILYLQMSSLRSEDTAMFYCTSRGDTTLITTLFTYWGQGTLVTVSA
VL: B1 VL with S26N, R32S, F41Y, L43Q, K79R, V99I
notes: Tested as hybridoma culture supernatant

Assays:
[1] = target: T1, Tau 407-423 peptide (non-truncated …); assay: Biacore (SPR), peptide as analyte
[2] = target: T2, Tau 407-421 peptide (Truncated Asp421 …); assay: Biacore (SPR), peptide as analyte
[3] = target: T2, Tau 407-421 peptide (Truncated Asp421 …); assay: ELISA
Excerpt: (§1) The data thus confirms the ability of Antibodies 1G11A10, 5G2A3 and 5G2G6 to immunospecifically bind to the Truncated Asp421 Epitope of Tau.

[4] = target: T1, Tau 407-423 peptide (non-truncated …); assay: ELISA, immobilized peptide
Excerpt: as §1

[5] = target: T1, Tau 407-423 peptide (non-truncated …); assay: Biacore, peptide as analyte

Row | Binder | Kd [1] [nM] | Kd [2] [nM] | binding result [3] | binding result [4] | binding result [5]
1 | B1 | 5070 | 7.46 | – | – | –
2 | B2 | – | – | binds | no binding | –
3 | B3 | – | 1070 | – | – | no binding
4 | B4 | – | – | – | no binding | –
